Measurements as given in the nanobody polyreactivity screen of Harvey et al. (2022).

experiment: yeast display, Sf9 membrane polyspecificity reagent, FACS + sequencing; frameworks hold sequencing errors
Method in brief: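 Genes from sorted yeast were amplified by colony PCR, read by MiSeq 2 × 250 sequencing and filtered on CDR length. These cells carried a synthetic nanobody library in Saccharomyces cerevisiae BJ5465 and were sorted by FACS into low and high (top ~1%) gates on anti-HA and streptavidin fluorescence. Polyreactivity is labelled according to the gate of origin.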

Row | Sequence | polyreactivity (PSR sort gate)
1 | QVQLVESGGGLVQAGGSLRLSCAASGRIFYYYDMGWYRQAPGNERELVAGINDDSSTYYADSVKGRFTISRDNAKNTVYLQMNSLKPEDTAVYYCNAGPSWYPCWYYYWGQGTQVTVSS | low polyreactivity
2 | QVQLVESGGGLVQAGGSLRLSCAASGRIFYYYTMGWYRQAPGKERELVAAITSNGGSTYYADSVKGRFTISRDNAKNTVYLQMNSLKPEDTAVYYCAADSYSYRYYYWGQGTQVTVSS | high polyreactivity
3 | QVQLVESGGGLVQAGGSLRLSCAASGRIFYYYTMGWYRQAPGKERELVAGISRSGDRTYYADSVKGRFTISRDNAKNTVYLQMNSLKPEDTAVYYCATRWSSARMDYWGLGTQVTVSS | high polyreactivity
4 | QVQLVESGGGLVQAGGSLRLSCAASGRIGKYAMGWYRQAPGKERELVATISSTGTTNYADSVKGRFTISRDNAKNTVYLQMNSLKPEDTAVYYCAGRWEYVGYRRRYYRFDYWGQGTQVTVSS | high polyreactivity
5 | QVQLVESGGGLVQAGGSLRLSCAASGRIIAKYAMGWYRQAPGKERELVAAINWGGGSTYYADSVKGRFTISRDNAKITVYLQMNSLKPEDTAVYYCNRTPRSKGNYWGQGTQVTVSS | high polyreactivity
6 | QVQLVESGGGLVQAGGSLRLSCAASGRIIARYAMGWSRQAPGKERELVAAISRGGGRTYYADSVKGRFTISRDNATNTVYLQMNSLKPEDTAVYYCAADAYSIASVGYDYWGQGTQVTVSS | high polyreactivity
7 | QVQLVESGGGLVQAGGSLRLSCAASGRIIDDNAMGWYRQAPGKERELVASITVSTGSTYYADSVKGRFTISRDNAKNTVYLQMNSLKPEDTAVYYCDAPYITPYGTYVFSSDYWGQGTQVTVSS | low polyreactivity
8 | QVQLVESGGGLVQAGGSLRLSCAASGRIIDRNAMGWYRQAPGKERELVAAISSSGSTNYADSVKGRFTISRDNAKNTVYLQMNSLKPEVTAVYYCAARWRSVLAAGTRPVSFDYWGQGTQVTVSS | low polyreactivity
9 | QVQLVESGGGLVQAGGSLRLSCAASGRIIGGNAMGWYRPAPGKEREFVAAIRASGGSTHYADSVKGRFTISRDNAKNTVYLQMNSLKPEDTAVYYCNTYRARLGTTFIDYDYWGQGTQVTVSS | high polyreactivity
10 | QVQLVESGGGLVQAGGSLRLSCAASGRIIGGYAMGWYRQAPGKERELVAAITFRSGTTYYADSVKGRFTISRDNAKNTVYLQMNSLKPEDTAVYYCAARWGPYAFTYVRTYDYWGQGTQVTVSS | low polyreactivity
11 | QVQLVESGGGLVQAGGSLRLSCAASGRIIGRYAMGWYRPAPGKERELVAAISSSGSTYYADSVKGRFTISRDNAKNTVYLQMNSLKPEDTAVYYSAAYYRGRAYISYGYWGQGTQVTVSS | high polyreactivity
12 | QVQLVESGGGLVQAGGSLRLSCAASGRIIGSYAMGWYRQAPGKERELVAAISRGGITNYADSVKGRFTIARDNAKNTVYLQMNSLKPEDTAVYYCAVGIRYRGRQGYYGYYTYDYWGQGTQVTVSS | high polyreactivity
13 | QVQLVESGGGLVQAGGSLRLSCAASGRIIGTNARGWYRQAPGNERELVASISSRSTRTYYADSVKGRFTISRDNAKNTVYLQMNSLKPEDTAVYYCAARYPYYVHYDYWGQGTQVTVSS | high polyreactivity
14 | QVQLVESGGGLVQAGGSLRLSCAASGRIIIGYVMGWYRQAPGKERELVATISYSGGSTYADSVKGRFTISRDNAKNTVYLQMNSLKPEDTAVYYCAARPYYRYYRYPYGYWGQGTQVTVSS | high polyreactivity
15 | QVQLVESGGGLVQAGGSLRLSCAASGRIIKFYAMGWYRQAPGKERELVARISRSGGRTYYADSVKGRFTISRDNAKITVYLQMNSLKPEDTAVYYCAADTQSVATYDYWGQGTQVTVSS | low polyreactivity
16 | QVQLVESGGGLVQAGGSLRLSCAASGRIINYNARGWYRQAPGKERELVAAISSSGGSTYYADSVKGRFTISRDNAKNTVYLQMNSLKPEDTAVYYCNALGTTEYWSRDDYWGQGTQVTVSS | low polyreactivity
17 | QVQLVESGGGLVQAGGSLRLSCAASGRIIQYNAMGWYRQAPGKERELVAAMSWRSGRTYYADSVKGRFTISRDNAKNTVYLQMNSLKPEDTAVYYCAATSRTSWYGYWGQGTQVTVSS | high polyreactivity
18 | QVQLVESGGGLVQAGGSLRLSCAASGRIIRRYAMGWYRQAPGKERELVAAISRSGGSTYYADSVKGRFTISRDNAKNTVFLQMKRLKPEDTAVYYCNRRYITYNYDYWGQVTQVTVSS | high polyreactivity
19 | QVQLVESGGGLVQAGGSLRLSCAASGRIIRVNAMGWYRQAPGKERELVAAISGRGGSTYYADSVKGRFTISRDNAKITVYLQMNSLKPEDTAVYYCAKKSYSYGYNSYDYWGQGTQVTVSS | high polyreactivity
20 | QVQLVESGGGLVQAGGSLRLSCAASGRIISPYAMGWYRQAPGKERELVAAISWRGSSTYYADSVKGRFTISRDNAKNTVYLQMNSLKPEDTAVYYCAAVYYRGIQSYDYWGQGTQVTVSS | low polyreactivity
21 | QVQLVESGGGLVQAGGSLRLSCAASGRIISRYAMGWYRQAPGKERELVAAISRRGGSTYYADSVKGRFTISRDNAKNTVYLQLNSLKPEDTAVYYCNADTGNRGYDYWGQGTQVTVSS | high polyreactivity
22 | QVQLVESGGGLVQAGGSLRLSCAASGRIISVYAMGWYRQAPGKERELVATITGGNTNYADSVKGRFTISRDNAKNTVYLQMNSLKPEDTAVYYCAKQFLPSGVYYEYDSWGQGTQVTVSS | low polyreactivity

Row | Sequence | polyreactivity (PSR sort gate)
23 | QVQLVESGGGLVQAGGSLRLSCAASGRIITRNAMGWYRPAPGKERELVAAISSGGSTSYADSVKGRFTISRDNAKNTVYLQLNSVKPEDTAVYYCATKWYWWYDGYYYWGQGTQVTVSS | low polyreactivity
24 | QVQLVESGGGLVQAGGSLRLSCAASGRIITTYAMGRYRQAPGKERELVAPITSDGRTYYADSVKVRFTISRDNATHSVYLQMYSMKPEDTAVYYCNAAGRYAFPFGYNYWGQGTQVTVSS | high polyreactivity
25 | QVQLVESGGGLVQAGGSLRLSCAASGRIIWSNAMGWYRQAPGKERELVAGITGSGGNTYYADSVKGRFTISRDNAKNTVYLHMNSLKPEDTAVYYCNARSGSRPSSSYRYDYWGQGTQVTVSS | low polyreactivity
26 | QVQLVESGGGLVQAGGSLRLSCAASGRIIYNAMGWYRQAPGKERELVAAITSNGCSTYYADSVKGLFTISRDTAKNTVYLQMNSLKPEDTAVYYCARDVNSVPSEVKYDYWGQGTQVNVSS | low polyreactivity
27 | QVQLVESGGGLVQAGGSLRLSCAASGRIIYTNAMGWYRQAPGKERELVAAINRSGGITYYADSVKGRFTISRDNAKNTVYLQMNSLKPEDTAVYYCAKDYSWASYNHDYWGQGTQVTVSS | low polyreactivity
28 | QVQLVESGGGLVQAGGSLRLSCAASGRIIYTYAMGWYRQAPGKERELVAAISWSGGSTYYADSVKGRFTISRDNAKNTVYLQMKSLKPEDTAVYFCNAAYYGYENLSKRGYWGQGTQVTVSS | high polyreactivity
29 | QVQLVESGGGLVQAGGSLRLSCAASGRIIYVKAMGWYRQAPGKERELVAAISSRGGTTYYADSVKGRFTISRDNAKNSVYLQMNSLKPEDTAVYYCNAGRVRHGNDYWGQGTQVTVSS | high polyreactivity
30 | QVQLVESGGGLVQAGGSLRLSCAASGRILARYAMGWYRQAPGKERELVAAITSRGGSTSYADSVKGRFTISRDNAKNTVYLQMNSLKPEDTAVYYCAKGERSANGGLFAGRHGYWGQGTQVTVSS | low polyreactivity
31 | QVQLVESGGGLVQAGGSLRLSCAASGRILASYAMGWYRQAPGKERELVAAIRYRGSTSYADSVKGRFTISRDNANNTVYLQMNSLKPEDTAVYYCNAGLEYYYWGYTWEFDYWGQGTQVTVSS | low polyreactivity
32 | QVQLVESGGGLVQAGGSLRLSCAASGRILAWYAMGWYRQAPGKEREFVAGITGSVGSTYYADSVKGRFTISRDKAKNTVYLQMNSLKPEDPAVYYCNKDWDRTSGPKHYYWGQGTQVTVSS | low polyreactivity
33 | QVQLVESGGGLVQAGGSLRLSCAASGRILDRYAMGWYRQAPGKERELVAVITDRGGNTYYADSVKGRFTISRDNAKNTVYLQMNSLKPEDTAVYYCAVYAYWRFRTYYYWGQGTQVTVSS | high polyreactivity
34 | QVQLVESGGGLVQAGGSLRLSCAASGRILDVYVMGWYRQAPGKERELVAAISSGGSTYYADSVKGRFTISRDNAKNTVYLQMNSLKPEDTAVYYCAFYYWGQGTQVTVSS | high polyreactivity
35 | QVQLVESGGGLVQAGGSLRLSCAASGRILFFNAMGWYRQAPGKERELVAAISVSGGSTYYADSVKGRFTISRDNAQNTVYLQMNSLKPEDTAVYYCAKGYDFRRRYDYWGQGTQVTVSS | low polyreactivity
36 | QVQLVESGGGLVQAGGSLRLSCAASGRILFGYAMGWYRQAPGKERELVADITSTGSTNYADSVKGRFTISRDNAKNTVYLQMNSLNPEDTAVYYCNARRESYYQRYRVDYWGQGTQVTVSS | low polyreactivity
37 | QVQLVESGGGLVQAGGSLRLSCAASGRILFRYGMGWYRQAPGKERELVARISWSGGNTHYADSVKGRFTISRDNAKNTVYLQMNSLKPEDTAVYYCNAYYTYWYPRYDYWGQGTQVTVSS | low polyreactivity
38 | QVQLVESGGGLVQAGGSLRLSCAASGRILFSYAMGWYRQAPGKERELVATISSGGRTNYADSVKGRFTISRDNAKNTVYLQMNSLKPEDTAVYYCNTEYLVWYPYDYWGQGTQVTVSS | low polyreactivity
39 | QVQLVESGGGLVQAGGSLRLSCAASGRILGDYAMGWYIQAPGKERELVAAISSGGTTYYADSVKGRFTISRDNAKNTVYLQMNSLKPEDTAVYYCAALTSTLPAYGYWGQGTQVTVSS | low polyreactivity
40 | QVQLVESGGGLVQAGGSLRLSCAASGRILGFNVMGWYRQAPGKERELVAAITTSGGSTYYADSVKGRFTISRDNAKNTVYLQMNSLKPEDTAVYYCAARYRRFRFTHYDYWGQGTQVTVSS | high polyreactivity
41 | QVQLVESGGGLVQAGGSLRLSCAASGRILGRNAMGRYRQAPGKEREFVAGISYSGTSTYYADSVKGRFTISRDNAKNTVYLQMNSLKPEDTAVYYCAARSTWFQIRYGYWGQGTQVTVSS | high polyreactivity
42 | QVQLVESGGGLVQAGGSLRLSCAASGRILGRNAMGWYRQAPGKEREFVAGISYSGTSTYYADSVKGRFTISRDNAKNTVYLQMNSLKPEDTAVYYCNVKNQVYRRYYYWGQGTQVTVSS | high polyreactivity
43 | QVQLVESGGGLVQAGGSLRLSCAASGRILGRYAMGWYRQAPGKEREVVATITSGDDTNYADSVKGRFTISRDHAKNTVYLQMNSLKPEDTAVGFWGQGSQVTVSS | low polyreactivity
